# Data as given in US20250197490A1 (HBM ALPHA THERAPEUTICS, published 2025).
# Numbering of substitutions follows the chain as printed.
# T1: biotinylated CRH (human and mouse, UniProt P01143 145-185 (rat entry), not fully specified; biotin; which end is not stated for the result (NT-biotin and CT-biotin forms were used))
# T1 construct: also called biotin-CRH; CRH (NT biotin)
# T1 peptide: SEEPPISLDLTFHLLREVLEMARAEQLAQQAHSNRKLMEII
# T2: corticotropin-releasing hormone (CRH) peptide (human and mouse, UniProt P01143 145-185 (rat entry), not fully specified)
# T2 peptide: T1 peptide
# B1: PR005657 (antibody, human IgG1, kappa, V domains shown)
# VH: EVQLVESGGVLVQPGGSLRLSCAASGFTFSSYWMTWVRQAPGKGLEWVANIKQDASEKYYVDSVKGRFTISRDNAKNSLFLQMNSLRAEDTAVYYCARTLIFDYWGQGTLVTVSS
# VL: DIVMTQSPLSLPVTPGEPASISCRSSQSLLHSTGYNSLEWYLQKPGQSPQLLIYLGSNRASGVPDRFSGSGSGTDFTLKISRVEAEDVGIYYCMQTLQTPITFGQGTRLEIKR
# B2: PR005662 (antibody, human IgG1, kappa, V domains shown)
# VH: B1 VH
# VL: B1 VL with N36Q
# B3: PR005658 (antibody, human IgG1, kappa, V domains shown)
# VH: B1 VH with A55G
# VL: B1 VL with N36Q
# B4: PR006142 (antibody, human IgG1, kappa, V domains shown)
# VH: B1 VH with D54E, A55G
# VL: B1 VL with N36D
# B5: PR301777 (antibody, human IgG1, kappa, V domains shown)
# VH: EMKLEESGGGLVQPGGSMKLSCVASGFTFSNYWMNWVRQSPEKGLEWVAEIRLKSNNYATHYAESVKGRFTISRDDSKSGVYLQMNNLGAEDTGIYYCTVGTLVYWGQGTLVTVSA
# VL: DIVLTQSPASLAVSLGQRATISCRASQSVSTSTYNYMHWFQQKPGQPPKLLIKFASNLESGVPARFSGSGSGTDFTLNIHPVEEEDTATFYCQHSWEIPYTFGGGTKLEIKR
# B6: PR302036 (antibody, human IgG1, kappa, V domains shown)
# VH: EMQLVESGGGLVQPGGSLRLSCAASGFTFSNYWMNWVRQAPGKGLEWVAEIRLKSNNYATHYAESVKGRFTISRDDSKSSVYLQMNSLKTEDTAVYYCTVGTLVYWGQGTLVTVSS
# VL: DIVLTQSPDSLAVSLGERATINCRASQSVSTSTYNYMHWFQQKPGQPPKLLIKFASNLESGVPDRFSGSGSGTDFTLTISSLQAEDTAVYYCQHSWEIPYTFGQGTKLEIKR
# B7: PR302041 (antibody, human IgG1, kappa, V domains shown)
# VH: B6 VH
# VL: DIQLTQSPSSLSASVGDRVTITCRASQSVSTSTYNYMHWFQQKPGKAPKLLIKFASNLESGVPSRFSGSGSGTDFTLTISSLQPEDTATYYCQHSWEIPYTFGQGTKLEIKR
# B8: PR302038 (antibody, human IgG1, kappa, V domains shown)
# VH: B6 VH
# VL: EIVLTQSPATLSLSPGERATLSCRASQSVSTSTYNYMHWFQQKPGQAPRLLIKFASNLESGIPARFSGSGSGTDFTLTISSLEPEDTAVYYCQHSWEIPYTFGQGTKLEIKR
# B9: PR302052 (antibody, human IgG1, kappa, V domains shown)
# VH: B6 VH with R19K, P41S, S80T
# VL: B8 VL
# B10: PR302066 (antibody, human IgG1, kappa, V domains shown)
# VH: B6 VH with Q13K, S80T
# VL: B8 VL
# B11: PR302069 (antibody, human IgG1, kappa, V domains shown)
# VH: B6 VH with Q13K, S80T
# VL: B7 VL
# B12: PR302031 (antibody, human IgG1, kappa, V domains shown)
# VH: B6 VH with M2V, A49G, S79N, V81L
# VL: B8 VL
# B13: PR302048 (antibody, human IgG1, kappa, V domains shown)
# VH: B6 VH with M2V, R19K, P41S, A49G, S79N, S80T, V81A, V100R
# VL: B7 VL
# B14: PR302034 (antibody, human IgG1, kappa, V domains shown)
# VH: B6 VH with M2V, A49G, S79N, V81L
# VL: B7 VL
# B15: PR302050 (antibody, human IgG1, kappa, V domains shown)
# VH: B6 VH with R19K, P41S, S80T
# VL: B6 VL
# B16: PR302045 (antibody, human IgG1, kappa, V domains shown)
# VH: B6 VH with M2V, R19K, P41S, A49G, S79N, S80T, V81A, V100R
# VL: B8 VL
# B17: PR302055 (antibody, human IgG1, kappa, V domains shown)
# VH: B6 VH with R19K, P41S, S80T
# VL: B7 VL
# B18: PR302043 (antibody, human IgG1, kappa, V domains shown)
# VH: B6 VH with M2V, R19K, P41S, A49G, S79N, S80T, V81A, V100R
# VL: B6 VL
# B19: PR302029 (antibody, human IgG1, kappa, V domains shown)
# VH: B6 VH with M2V, A49G, S79N, V81L
# VL: B6 VL
# B20: PR302309-13 (antibody, human IgG1, kappa, V domains shown)
# VH: QVQLVQSGSELKKPGASVKVSCKASGYTFTNYGMNWVRQAPGQGLEWMGWINTYTGEPIYTDDFKGRFVFSLDTSVSTAYLQISSLKAEDTAVYYCARSTMITTGGVFAYWGQGTLVTVSS
# VL: DVLMAQTPLSLPVSLGDQASISCRSSQTIVHSDGNTYLEWYLQKPGQSPKLLIYKVSNRFSGVPDRFSGSGSGTDFTLKISRVEAEDLGVYYCFQGSHVPWTFGGGTKLEIKR
# B21: PR302309-14 (antibody, human IgG1, kappa, V domains shown)
# VH: B20 VH with V2I, A97S
# VL: B20 VL
# B22: PR302309-16 (antibody, human IgG1, kappa, V domains shown)
# VH: QIQLVQSGAEVKKPGASVKVSCKASGYTFTNYGMNWVRQAPGQRLEWMGWINTYTGEPIYTDDFKGRVTITLDTSASTAYMELSSLRSEDTAVYYCSRSTMITTGGVFAYWGQGTLVTVSS
# VL: B20 VL
# B23: PR302309-15 (antibody, human IgG1, kappa, V domains shown)
# VH: B22 VH with I2V, L72R, S97A
# VL: B20 VL
# B24: PR302309-6 (antibody, human IgG1, kappa, V domains shown)
# VH: QIQLVQSGPELKKPGETVKISCKASGYTFTNYGMNWVKQAPGKVLKWMGWINTYTGEPIYTDDFKGRFAFSLETSASTAYLQINNLKNEDTATYFCSRSTMITTGGVFAYWGQGTLVTVSA
# VL: DVVMTQTPLSSPVTLGQPASISCRSSQTIVHSDGNTYLEWYQQRPGQPPRLLIYKVSNRFSGVPDRFSGSGAGTDFTLKISRVEAEDLGVYYCFQGSHVPWTFGGGTKVEIKR
# B25: PR302309-20 (antibody, human IgG1, kappa, V domains shown)
# VH: B22 VH
# VL: B24 VL with S11L, P12S, L15P, Q42L, R44K, P48S, R50Q, A72S
# B26: PR302309-17 (antibody, human IgG1, kappa, V domains shown)
# VH: B20 VH
# VL: B24 VL with T7S, S11L, P48S, A72S
# B27: PR302309-9 (antibody, human IgG1, kappa, V domains shown)
# VH: B20 VH with V2I, A97S
# VL: B24 VL with V2I, S11L, P12S, L15P, Q42L, R44K, P48S, R50Q, A72S, L88V
# B28: PR302309-19 (antibody, human IgG1, kappa, V domains shown)
# VH: B22 VH
# VL: B24 VL with T7S, S11L, P48S, A72S
# B29: PR302309-7 (antibody, human IgG1, kappa, V domains shown)
# VH: B20 VH with V2I, A97S
# VL: B24 VL with T7S, S11L, Y41F, P48S, L51R, A72S, L88V
# B30: PR302309-21 (antibody, human IgG1, kappa, V domains shown)
# VH: B22 VH
# VL: B24 VL
# B31: PR302309-10 (antibody, human IgG1, kappa, V domains shown)
# VH: B20 VH with V2I, A97S
# VL: B24 VL with S11L, P12S, L15P, Q42L, R44K, P48S, R50Q, A72S
# B32: PR302309-12 (antibody, human IgG1, kappa, V domains shown)
# VH: B20 VH with V2I, A97S
# VL: B24 VL
# Biological target: T1, biotinylated CRH
# Experiment: ELISA, CRH (NT biotin)
# Method: Streptavidin (Thermo, Cat: 21125) was diluted in PBS to a concentration of 2 μg/ml. 100 μl of diluted streptavidin was added per well to ELISA microplates, and the plates were incubated overnight at 4° C. […] Subsequently, plates were washed and incubated with HRP-conjugated goat anti-human IgG (H+L) antibody (Jackson, Cat: 109-035-088) at 37° C. for 1 hour. 100 μL of 3,3′,5,5′-tetramethylbenzidine (TMB) substrate (Biopanda, Cat: TMB-S-003) was added, and the plates were incubated at room temperature for 15 minutes. 100 μL of ELISA stopping solution (Solarbio, Cat #: C1058) was added to terminate the reaction, and the optical density at 450 nm (OD450 nm) was determined by an ELISA plate reader (Molecular Devices, Spectra max 384 plus).
# These potential PTMs were mutated individually either in HCDR2 alone, in LCDR1 alone, or in various combinations of mutations, as detailed in Table 3. […] Most ΔPTM variants retained functional activities.
EC50 (read off the curve),binding result,Binder
~0.03 nM,–,B1
~0.03 nM,–,B2
~0.03 nM,–,B3
–,binds,B4

# Biological target: T2, corticotropin-releasing hormone (CRH) …
# Experiment: cell-based or functional assay
row,unlabelled nM value (Table 5 matrix; likely hCRHR1-Luc IC50 as in Tables 6-8),Binder
1,0.674 nM,B5
2,1.4 nM,B6
3,2.54 nM,B7
4,3.34 nM,B8
5,2.05 nM,B9
6,2.49 nM,B10
7,1.54 nM,B11
8,14 nM,B12
9,6.66 nM,B13
10,6.87 nM,B14
11,0.572 nM,B15
12,15.3 nM,B16
13,1.35 nM,B17
14,3.87 nM,B18
15,2.65 nM,B19

# Biological target: T2, corticotropin-releasing hormone (CRH) …
# Experiment: cell-based or functional assay
# Remark: another data set of the same source
row,hCRHR1-Luc 0.5 nM CRH IC50,Binder
1,7.23 nM,B20
2,1.68 nM,B21
3,5.47 nM,B22
4,10.5 nM,B23
5,1.08 nM,B24
6,3.07 nM,B25
7,6.69 nM,B26
8,6.08 nM,B27
9,4.83 nM,B28
10,6.38 nM,B29
11,8.44 nM,B30
12,3.2 nM,B31
13,4.47 nM,B32
